Key:
[1] = target: FimH (lectin subdomain FimHL and pilin subdomain FimHP) of the self-complemented construct FimH-DS_( (E. coli) (UniProt P08191)); assay: single-molecule force spectroscopy (AFM, force-extension)
[2] = target: FimH (lectin and pilin subdomains), β-strand-complemented and oxidized, in the array polyprotein (I9 (E. coli) (UniProt P08191)); assay: single-molecule force spectroscopy (AFM, force-ramp)
[3] = target: FimF domain, β-strand-complemented and oxidized, in the array polyprotein (I91)2-FimF-FimG-FimH-(I91)2 (E. coli) (UniProt P08189); assay: as above
[4] = target: FimA domain of the self-complemented construct FimA-DS_(FimA), oxidized (FimAS-S), in the polyprotein (I91)2-FimA-(I91)2 (E. coli) (UniProt P04128); assay: single-molecule force spectroscopy (AFM, force-extension)
[5] = target: FimF domain of the self-complemented construct FimF-DS_(FimA), oxidized (FimFS-S), in the polyprotein (I91)2-FimF-(I91)2 (E. coli) (UniProt P08189); assay: as above
[6] = target: FimG domain of the self-complemented construct FimG-DS_(FimF), reduced (FimG_(SH-SH)), in the polyprotein (I91)2-FimG-(I91)2 (E. coli)
[7] = target: FimG domain of the self-complemented construct FimG-DS_(FimF), oxidized (FimGS-S), in the polyprotein (I91)2-FimG-(I91)2 (E. coli); assay: single-molecule force spectroscopy (AFM, force-extension)
[8] = target: FimG domain, β-strand-complemented and oxidized, in the array polyprotein (I91)2-FimF-FimG-FimH-(I91)2 (E. coli); assay: single-molecule force spectroscopy (AFM, force-ramp)
FimG domain, β-strand-complemented and oxidized, in the array polyprotein (I91)2-FimF-FimG-FimH-(I91)2 (E. coli), sequence (P08190 24-167): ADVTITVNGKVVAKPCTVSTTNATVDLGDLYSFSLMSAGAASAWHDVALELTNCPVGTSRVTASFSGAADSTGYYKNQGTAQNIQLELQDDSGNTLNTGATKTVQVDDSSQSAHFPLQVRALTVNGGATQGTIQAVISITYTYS

FimG domain of the self-complemented construct FimG-DS_(FimF), oxidized (FimGS-S), in the polyprotein (I91)2-FimG-(I91)2 (E. coli), sequence (P08190 24-167): as above
UniProt P04128, sequence (P04128 24-182): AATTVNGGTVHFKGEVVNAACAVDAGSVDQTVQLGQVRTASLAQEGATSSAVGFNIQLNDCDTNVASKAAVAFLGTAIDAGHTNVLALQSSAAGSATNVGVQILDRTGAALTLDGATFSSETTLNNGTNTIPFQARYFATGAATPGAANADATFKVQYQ

donor β-strand of FimG (DS_(FimG)) linked by DNKQ to the C-terminus of FimH in (I91)2-FimH-(I91)2 (from UniProt P08190) (peptide)
rupture force of FimHP (rupture of the β-strand interaction) [1]: 362 pN

donor β-strand of FimG complementing FimH in the array polyprotein (I91)2-FimF-FimG-FimH-(I91)2 (from UniProt P08190) (peptide)
unfolding force of FimHP in force-ramp (rupture of the β-strand interaction) [2]: 238 pN

donor β-strand of FimA complementing FimF in the array polyprotein (I91)2-FimF-FimG-FimH-(I91)2 (peptide)
unfolding force in force-ramp (rupture of the β-strand interaction) [3]: 281 pN

donor β-strand of FimA (DS_(FimA)) linked by DNKQ to the C-terminus of FimA in (I91)2-FimA-(I91)2 (from UniProt P04128) (peptide)
unfolding force (rupture of the β-strand interaction) [4]: 527 pN

donor β-strand of FimA (DS_(FimA)) linked by DNKQ to the C-terminus of FimF in (I91)2-FimF-(I91)2 (peptide)
unfolding force (rupture of the β-strand interaction) [5]: 418 pN

B1: DsbA oxidoreductase (enzyme)
chain: AQYEDGKQYTTLEKPVAGAPQVLEFFSFFCPHCYQFEEVLHISDNVKKKLPEGVKMTKYHVNFMGGDLGKDLTQAWAVAMALGVEDKVTVPLFEGVQKTQTIRSASDIRDVFINAGIKGEEYDAAWNSFVVKSLVAQQEKAAADVQLRGVPAMFVNGKYQLNPQGMDTSNMDVFVQQYADTVKYLSEKK
refolding probability of FimG in force-clamp AFM after 45 s at 0 pN, with DsbA (100 μM) against reduced FimG alone (around 20%) [6]: 70%

B2: donor β-strand of FimF (DS_(FimF)) linked by DNKQ to the C-terminus of FimG in (I91)2-FimG-(I91)2 (peptide)
chain: DNKQADSTITIRGYVRDNGCSVAAESTNFTVDLMENAAKQFNNIGATTPVVPFRILLSPCGNAVSAVKVGFTGVADSHNANLLALENTVSAASGLGIQLLNEQQNQIPLNAPSSALSWTTLTPGKPNTLNFYARLMATQVPVTAGHINATATFTLEYQ
unfolding force (rupture of the β-strand interaction) [7]: 431 pN

B3: donor β-strand of FimF complementing FimG in the array polyprotein (I91)2-FimF-FimG-FimH-(I91)2 (peptide)
chain: B2 chain
unfolding force in force-ramp (rupture of the β-strand interaction) [8]: 261 pN

Source: article PMC6048123
